In patent publication US20190338269:

B1: factor VIIa/tissue factor (TF) complex (protein)
chain 1: ANAFLEELRPGSLERECKEEQCSFEEAREIFKDAERTKLFWISYSDGDQCASSPCQNGGSCKDQLQSYICFCLPAFEGRNCETHKDDQLICVNENGGCEQYCSDHTGTKRSCRCHEGYSLLADGVSCTPTVEYPCGKIPILEKRNASKPQGRIVGGKVCPKGECPWQVLLLVNGAQLCGGTLINTIWVVSAAHCFDKIKNWRNLIAVLGEHDLSEHDGDEQSRRVAQVIIPSTYVPGTTNHDIALLRLHQPVVLTDHVVPLCLPERTFSERTLAFVRFSLVSGWGQLLDRGATALELMVLNVPRLMTQDCLQQSRKVGDSPNITEYMFCAGYSDGSKDSCKGDSGGPHATHYRGTWYLTGIVSWGQGCATVGHFGVYTRVSQYIEWLQKLMRSEPRPGVLLRAPFP
chain 2: SGTTNTVAAYNLTWKSTNFKTILEWEPKPVNQVYTVQISTKSGDWKSKCFYTTDTECDLTDEIVKDVKQTYLARVFSYPAGNVESTGSAGEPLYENSPEFTPYLETNLGQPTIQSFEQVGTKVNVTVEDERTLVRRNNTFLSLRDVFGKDLIYTLYYWKSSSSGKKTAKTNTNEFLIDVDKGENYCFSVQAVIPSRTVNRKSTDSPVECMGQEKGEFREIFYIIGAVVFVVIILVIILAISLHKCRKAGVGQSWKENSPLNVS

Experiments:
[1] = target: plasma factor X (UniProt P00742)
Chain of plasma factor X (P00742 whole entry, looked up): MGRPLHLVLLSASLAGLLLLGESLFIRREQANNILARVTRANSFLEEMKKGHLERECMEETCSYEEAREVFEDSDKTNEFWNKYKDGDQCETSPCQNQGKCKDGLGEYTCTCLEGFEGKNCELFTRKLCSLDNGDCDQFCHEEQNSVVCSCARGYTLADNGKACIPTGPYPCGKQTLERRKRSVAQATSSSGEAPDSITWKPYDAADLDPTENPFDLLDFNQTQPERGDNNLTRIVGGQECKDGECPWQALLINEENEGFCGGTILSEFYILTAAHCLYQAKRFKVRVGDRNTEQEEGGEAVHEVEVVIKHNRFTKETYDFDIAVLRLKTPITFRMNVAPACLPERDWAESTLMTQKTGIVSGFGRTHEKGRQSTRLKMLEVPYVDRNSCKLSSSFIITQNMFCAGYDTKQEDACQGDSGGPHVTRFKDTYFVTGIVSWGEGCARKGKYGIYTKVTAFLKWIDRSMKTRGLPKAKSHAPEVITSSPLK

[2] = target: plasma factor X, P00742
Chain of plasma factor X, P00742 (P00742 whole entry, looked up): as above

| Molecule | appearance of FXa activity after incubation with thrombin (100 nM FX / 10 nM IIa, up to 8 h) [1] | FXa generated after incubation with FVIIa/TF (rate of hydrolysis of PNAPEP substrate) [2] |
| --- | --- | --- |
| thrombin | did not result in the appearance of FXa activity | – |
| B1 | – | the already activated plasma FX and the plasma FX treated with the FVIIa/FT both gave a positive signal of the same order of magnitude |
